These are literature values, as cited in PMC10795913 (The Journal of Clinical Endocrinology and Metabolism, 2023).

For the data set, the system named is patients. As to conditions: different assays, not directly comparable; cited from earlier work.

On to albiglutide, for which the “ADA incidence in published studies” value is given as 2.5%.
